Data reported in patent US20200316121A1 (published 2020).
Numbering of substitutions follows the chain as printed.

T1: p53 R248W peptide on HLA-A*68:01 (human)
T1 peptide: SSCMGGMNWR

T2: p53 wild type (Y220) peptide on HLA-DRB1*04:01:01 (human)
T2 peptide: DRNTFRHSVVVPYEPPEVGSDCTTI

T3: p53 Y220C peptide on HLA-DRB1*04:01:01 (human)
T3 peptide: RNTFRHSVVVPCE

B1: 4266-TCR2 (TCR, V domains shown)
Valpha: GQNIDQPTEMTATEGAIVQINCTYQTSGFNGLFWYQQHAGEAPTFLSYNVLDGLEEKGRFSSFLSRSKGYSYLLLKELQMKDSASYLCAVYTGGFKTIFGAGTRLFVKA
Vbeta: EAGVAQSPRYKIIEKRQSVAFWCNPISGHATLYWYQQILGQGPKLLIQFQNNGVVDDSQLPKDRFSAERLKGVDSTLKIQPAKLEDSAVYLCASNLGGGSTDTQYFGPGTRLTVL
B2: 4266-TCR4 (TCR, V domains shown)
Valpha: GQNIDQPTEMTATEGAIVQINCTYQTSGFNGLFWYQQHAGEAPTFLSYNVLDGLEEKGRFSSFLSRSKGYSYLLLKELQMKDSASYLCAVYPGGSQGNLIFGKGTKLSVKP
Vbeta: B1 Vbeta with N95S, G98T
B3: 4259-F6-TCR (TCR, V domains shown)
Valpha: QKEVEQNSGPLSVPEGAIASLNCTYSDRGSQSFFWYRQYSGKSPELIMFIYSNGDKEDGRFTAQLNKASQYVSLLIRDSQPSDSATYLCAWNSGGSNYKLTFGKGTLLTVNP
Vbeta: NAGVTQTPKFRVLKTGQSMTLLCAQDMNHEYMYWYRQDPGMGLRLIHYSVGEGTTAKGEVPDGYNVSRLKKQNFLLGLESAAPSQTSVYFCASSYSQAWGQPQHFGDGTRLSIL
B4: 4266-TCR3 (TCR, V domains shown)
Valpha: B2 Valpha with V90F, P92Y
Vbeta: GAGVSQSPRYKVAKRGQDVALRCDPISGHVSLFWYQQALGQGPEFLTYFQNEAQLDKSGLPSDRFFAERPEGSVSTLKIQRTQQEDSAVYLCASSFGSGSTDTQYFGPGTRLTVL

Columns and labels:
Experiment in all cases: activation reporter or marker
[1] = molecular target: T1, p53 R248W peptide on HLA-A*68:01
[2] = molecular target: T2, p53 wild type (Y220) peptide on …
[3] = molecular target: T3, p53 Y220C peptide on HLA-DRB1*04:01:01

Row | Binder | binding result [1] | binding result [2] | binding result [3]
1 | B1 | recognises | – | –
2 | B2 | recognises | – | –
3 | B3 | – | no recognition | recognises
4 | B4 | recognises | – | –
